According to US20190106460A1, “BINDING INHIBITORS OF THE BETA. TRANSDUCIN REPEAT-CONTAINING PROTEIN” (priority 2011, published 2019):
Starred links: 1 amine or outer side, 2 acyl side, 3 side chain; linkers in the order of their positions; H or OH if unused. Suc = O=C(CCC(=O)[*:2])[*:1]

Columns and labels:
[1] = target: βTrCP (tag cleaved and complexed with Skp1) (UniProt Q9Y297); assay: FP competition vs fluorescein-IκB peptide
[2] = target: βTrCP (tag cleaved and complexed with Skp1) (UniProt Q9Y297); assay: FP competition, 10 nM fluorescein-IκB peptide on βTrCP/Skp1
[3] = target: HisβTrCP/Skp1 and HisβTrCP/GSTSkp1 (immobilised on NTA Biacore chip) (UniProt Q9Y297); assay: SPR, Biacore T200, βTrCP/Skp1 immobilised
[4] = target: βTrCP (tag cleaved and complexed with Skp1) (UniProt Q9Y297); assay: FP competition vs fluorescein-IκB peptide; Table 7: peptide selected from the arrays of Tables 5 and 6, re-synthesised; FP assay
[5] = target: βTrCP (tag cleaved and complexed with Skp1) (UniProt Q9Y297); assay: FP competition vs fluorescein-IκB peptide; remark: listed apart in the source

Chain of βTrCP (tag cleaved and complexed with Skp1) (Q9Y297 175-605, chain 1 of 2): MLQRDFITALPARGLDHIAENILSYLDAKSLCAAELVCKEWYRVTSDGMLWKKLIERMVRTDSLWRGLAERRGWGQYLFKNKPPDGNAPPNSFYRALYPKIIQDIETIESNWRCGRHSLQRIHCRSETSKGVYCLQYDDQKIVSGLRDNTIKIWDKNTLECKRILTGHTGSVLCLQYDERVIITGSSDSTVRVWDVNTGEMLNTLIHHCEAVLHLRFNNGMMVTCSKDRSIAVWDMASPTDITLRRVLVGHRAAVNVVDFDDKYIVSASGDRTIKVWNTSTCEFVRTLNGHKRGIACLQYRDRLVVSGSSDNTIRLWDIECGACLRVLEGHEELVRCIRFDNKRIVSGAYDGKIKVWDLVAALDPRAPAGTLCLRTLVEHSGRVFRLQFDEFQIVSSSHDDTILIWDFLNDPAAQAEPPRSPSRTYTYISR
Chain of βTrCP (tag cleaved and complexed with Skp1) (P63208 whole entry, chain 2 of 2, further chain): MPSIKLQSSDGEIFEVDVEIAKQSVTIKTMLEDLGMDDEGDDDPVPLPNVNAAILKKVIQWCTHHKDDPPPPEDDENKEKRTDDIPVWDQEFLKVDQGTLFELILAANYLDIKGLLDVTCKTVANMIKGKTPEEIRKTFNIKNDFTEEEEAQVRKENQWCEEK
Chain of HisβTrCP/Skp1 and HisβTrCP/GSTSkp1 (immobilised on NTA Biacore chip) (Q9Y297 175-605, chain 1 of 2): as the sequence (Q9Y297 175-605, chain 1 of 2) above
Chain of HisβTrCP/Skp1 and HisβTrCP/GSTSkp1 (immobilised on NTA Biacore chip) (P63208 whole entry, chain 2 of 2, further chain): as the sequence (P63208 whole entry, chain 2 of 2, further chain) above

Row | Substance | IC50 [1] [nM] | Kd [3] [nM] | also measured
1 | D-pS-GIFE-NH2 (peptide) |  |  | IC50 [2]: 1240 nM
2 | E-pS-GIFE-NH2 (peptide) |  |  | IC50 [2]: 34500 nM
3 | EAFFE-NH2 (peptide) |  |  | IC50 [4]: 28000 nM
4 | Fum-EG-F(3F)-F(4NO2)-E-NH2 (peptide) | 60400 |  | 
5 | Mal-EGF(3F)F(4NO2)E-NH2 (peptide) | 2170 | 1460 | 
6 | Suc-AG-F(3F)-F(4NO2)-E-NH2 (peptide) | 8010 |  | 
7 | Suc-AGYFE-NH2 | 22200 |  | 
8 | Suc-EA-F(3F)-F(4NO2)-E-NH2 (peptide) | 27500 |  | 
9 | Suc-EAFFE-NH2 (peptide) | 59800 |  | 
10 | Suc-EAYFE-NH2 (peptide) | 82100 |  | 
11 | Suc-EG-3Pal-1Nal-E-NH2 (peptide) | 3630 |  | 
12 | Suc-EG-F(3F)-1Nal-Q-NH2 (peptide) | 7220 |  | 
13 | Suc-EG-F(3F)-3Pal-NH2 (peptide) |  |  | IC50 [5]: 70000 nM
14 | Suc-EG-F(4NO2)-1Nal-NH2 (peptide) |  |  | IC50 [5]: 14000 nM
15 | Suc-EGF(2F)F(4NO2)E-NH2 (peptide) | 4910 | 8000 | IC50 [5]: 4900 nM
16 | Suc-EGF(2F)Y(Me)E-NH2 (peptide) | 3280 | 4400 | IC50 [5]: 3200 nM
17 | Suc-EGI-1Nal-E-NH2 (peptide) | 15100 |  | 
18 | Suc-EGYF(4NO2)E-NH2 (peptide) | 2070 | 17700 | 
19 | Suc-QGF(3F)F(4NO2)E-NH2 (peptide) | 2560 | 5490 | 
20 | Suc-QGFFE-NH2 | 10000 |  | 
21 | Suc-QGYFE-NH2 | 10700 |  | 

Second part, led by results:

Row | IC50 [1] [nM] | Kd [3] [nM] | Substance | also measured
22 | 1600 |  | (MeO)Suc-EG-F(3F)-1Nal-E-NH2 (peptide) | 
23 | 1240 | 1480 | DpSGIFE-NH2 (peptide) | 
24 | 1400 |  | Suc-EG-F(3F)-Y(Me)-E-NH2 (peptide) | 
25 | 157 | 320 | Suc-EGF(3F)1NalE-NH2 (peptide) | 
26 | 522 | 4530 | Suc-EGF(3F)F(4NO2)E-NH2 (peptide) | IC50 [5]: 520 nM
27 | 521 | 400 | Suc-EGF(3F)HE-NH2 (peptide) | 
28 | 95 | 455 | Suc-EGF(3F)WE-NH2 (peptide) | 
29 | 1210 | 507 | Suc-EGF(4F)F(4NO2)E-NH2 (peptide) | IC50 [5]: 1200 nM
30 | 1310 | 1960 | Suc-EGF(4NO2)1NalE-NH2 (peptide) | 
31 | 1150 | 1490 | Suc-EGY1NalE-NH2 (peptide) | 
